Results published in article PMC5424160 (2017).

Target: GST-CDK9 (Homo sapiens (Human), UniProt P50750)
Experiment: GST pull-down

GST-CDK9, sequence (P50750 whole entry): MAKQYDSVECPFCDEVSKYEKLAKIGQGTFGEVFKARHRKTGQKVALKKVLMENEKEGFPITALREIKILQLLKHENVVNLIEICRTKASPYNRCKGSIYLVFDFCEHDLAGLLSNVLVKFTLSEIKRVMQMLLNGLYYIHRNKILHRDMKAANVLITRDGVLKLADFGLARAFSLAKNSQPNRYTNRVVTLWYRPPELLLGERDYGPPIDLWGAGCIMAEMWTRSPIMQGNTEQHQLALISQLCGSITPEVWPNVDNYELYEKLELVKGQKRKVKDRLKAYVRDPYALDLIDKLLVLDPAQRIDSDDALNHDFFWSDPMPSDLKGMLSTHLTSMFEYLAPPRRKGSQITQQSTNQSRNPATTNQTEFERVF

- binding result: no binding
B1: His-Menin (protein)
chain: MGLKAAQKTLFPLRSIDDVVRLFAAELGREEPDLVLLSLVLGFVEHFLAVNRVIPTNVPELTFQPSPAPDPPGGLTYFPVADLSIIAALYARFTAQIRGAVDLSLYPREGGVSSRELVKKVSDVIWNSLSRSYFKDRAHIQSLFSFITGTKLDSSGVAFAVVGACQALGLRDVHLALSEDHAWVVFGPNGEQTAEVTWHGKGNEDRRGQTVNAGVAERSWLYLKGSYMRCDRKMEVAFMVCAINPSIDLHTDSLELLQLQQKLLWLLYDLGHLERYPMALGNLADLEELEPTPGRPDPLTLYHKGIASAKTYYRDEHIYPYMYLAGYHCRNRNVREALQAWADTATVIQDYNYCREDEEIYKEFFEVANDVIPNLLKEAASLLEAGEERPGEQSQGTQSQGSALQDPECFAHLLRFYDGICKWEEGSPTPVLHVGWATFLVQSLGRFEGQVRQKVRIVSREAEAAEAEEPWGEEAREGRRRGPRRESKPEEPPPPKKPALDKGLGTGQGAVSGPPRKPPGTVAGTARGPEGGSTAQVPAPTASPPPEGPVLTFQSEKMKGMKELLVATKINSSAIKLQLTAQSQVQMKKQKVSTPSDYTLSFLKRQRKGL
